Results published in patent publication US20260049160A1 (Hoffmann-La Roche, published 2026).
Changes are numbered by the printed parent chain.

B1: 2 + 2 PD1TIM3_0359: chimeric PD1-0103/Tim3-0018 (bispecific antibody, human IgG1, kappa, L234A L235A)
heavy: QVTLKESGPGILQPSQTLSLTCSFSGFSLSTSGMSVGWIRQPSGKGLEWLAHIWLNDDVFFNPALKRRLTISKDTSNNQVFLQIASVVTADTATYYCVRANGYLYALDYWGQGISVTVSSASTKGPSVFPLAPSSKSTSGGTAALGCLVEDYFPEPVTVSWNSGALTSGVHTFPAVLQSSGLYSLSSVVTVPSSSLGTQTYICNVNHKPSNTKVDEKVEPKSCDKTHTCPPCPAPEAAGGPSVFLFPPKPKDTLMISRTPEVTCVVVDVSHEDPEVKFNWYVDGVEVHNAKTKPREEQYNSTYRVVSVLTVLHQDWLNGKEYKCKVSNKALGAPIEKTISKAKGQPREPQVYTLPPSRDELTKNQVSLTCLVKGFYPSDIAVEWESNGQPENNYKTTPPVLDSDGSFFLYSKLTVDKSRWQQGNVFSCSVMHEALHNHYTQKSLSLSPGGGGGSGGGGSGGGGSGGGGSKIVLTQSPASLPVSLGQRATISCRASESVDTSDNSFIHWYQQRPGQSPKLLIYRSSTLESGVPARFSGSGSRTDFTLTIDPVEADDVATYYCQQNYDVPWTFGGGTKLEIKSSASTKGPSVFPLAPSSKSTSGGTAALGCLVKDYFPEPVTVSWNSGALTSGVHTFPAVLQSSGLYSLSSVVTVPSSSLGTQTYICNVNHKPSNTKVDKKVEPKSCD
light 1: QIVLTQSPAIMSASPGQKVTITCSASSSVNYTQWYQQKLGSSPKLWIYDAFKLAPGVPARFSGSGTGTSYSLTISSMEAEDAASYFCHQWSSYPWTFGGGTKLEIKRTVAAPSVFIFPPSDRKLKSGTASVVCLLNNFYPREAKVQWKVDNALQSGNSQESVTEQDSKDSTYSLSSTLTLSKADYEKHKVYACEVTHQGLSSPVTKSFNRGEC
light 2: EVILVESGGGLVKPGGSLKLSCAASGFSFSSYTMSWVRQTPEKRLDWVATISGGGRDIYYPDSVKGRFTISRDNAKNTLYLEMSSLMSEDTALYYCVLLTGRVYFALDSWGQGTSVTVSSASVAAPSVFIFPPSDEQLKSGTASVVCLLNNFYPREAKVQWKVDNALQSGNSQESVTEQDSKDSTYSLSSTLTLSKADYEKHKVYACEVTHQGLSSPVTKSFNRGEC
notes: Tetravalent 2+2 CrossMAb VH-VL with charged substitutions in the CH1/CL interfaces; also called PD1TIM3-0359 (2 + 2)
B2: 2 + 2 PD1TIM3_0358: chimeric PD1-0103/Tim3-0028 (bispecific antibody, human IgG1, kappa, L234A L235A)
heavy: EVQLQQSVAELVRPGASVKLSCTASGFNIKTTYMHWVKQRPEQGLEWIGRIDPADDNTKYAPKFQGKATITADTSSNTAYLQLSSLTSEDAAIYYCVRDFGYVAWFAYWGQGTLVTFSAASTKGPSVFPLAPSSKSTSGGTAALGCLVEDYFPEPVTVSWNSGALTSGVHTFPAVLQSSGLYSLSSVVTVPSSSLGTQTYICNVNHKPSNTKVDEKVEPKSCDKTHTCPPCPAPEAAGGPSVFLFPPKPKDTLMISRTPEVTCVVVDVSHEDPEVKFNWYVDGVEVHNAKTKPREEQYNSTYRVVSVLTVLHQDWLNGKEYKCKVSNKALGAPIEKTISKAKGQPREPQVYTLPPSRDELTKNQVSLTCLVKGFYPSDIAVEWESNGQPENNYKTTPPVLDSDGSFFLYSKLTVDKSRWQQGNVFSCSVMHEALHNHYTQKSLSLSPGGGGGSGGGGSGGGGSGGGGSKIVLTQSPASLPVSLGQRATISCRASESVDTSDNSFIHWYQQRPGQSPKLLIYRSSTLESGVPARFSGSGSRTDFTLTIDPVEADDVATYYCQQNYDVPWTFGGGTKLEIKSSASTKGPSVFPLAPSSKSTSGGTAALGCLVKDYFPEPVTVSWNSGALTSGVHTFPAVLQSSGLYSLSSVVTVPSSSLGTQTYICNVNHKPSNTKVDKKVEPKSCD
light 1: NIVMTPTPKFLPVSSGDRVTMTCRASQSVDNYVAWYQQKPGQSPKLLIYYASNRYIGVPDRFTGSGSGTDFTFTISSVQVEDLAVYFCQQHYSSPYTFGSGTKLEIKRTVAAPSVFIFPPSDRKLKSGTASVVCLLNNFYPREAKVQWKVDNALQSGNSQESVTEQDSKDSTYSLSSTLTLSKADYEKHKVYACEVTHQG
light 2: B1 light 2
notes: Tetravalent 2+2 CrossMAb VH-VL with charged substitutions in the CH1/CL interfaces; also called PD1TIM3-0358 (2 + 2)
B3: Chimeric TIM3-0028 (antibody, V domains shown)
VH: EVQLQQSVAELVRPGASVKLSCTASGFNIKTTYMHWVKQRPEQGLEWIGRIDPADDNTKYAPKFQGKATITADTSSNTAYLQLSSLTSEDAAIYYCVRDFGYVAWFAYWGQGTLVTFSA
VL: NIVMTPTPKFLPVSSGDRVTMTCRASQSVDNYVAWYQQKPGQSPKLLIYYASNRYIGVPDRFTGSGSGTDFTFTISSVQVEDLAVYFCQQHYSSPYTFGSGTKLEIK
notes: Bivalent IgG; also called TIM3 IgG (bivalent); copies: 2 + 2
B4: Ang2VEGF-0273 (bispecific antibody, human IgG1, kappa)
light 1: QPGLTQPPSVSVAPGQTARITCGGNNIGSKSVHWYQQKPGQAPVLVVYDDSDRPSGIPERFSGSNSGNTATLTISRVEAGDEADYYCQVWDSSSDHYVFGTGTKVTVLRTVAAPSVFIFPPSDEQLKSGTASVVCLLNNFYPREAKVQWKVDNALQSGNSQESVTEQDSKDSTYSLSSTLTLSKADYEKHKVYACEVTHQGLSSPVTKSFNRGEC
heavy 1: not shown
heavy 2: not shown
light 2: EVQLVESGGGLVQPGGSLRLSCAASGYTFTNYGMNWVRQAPGKGLEWVGWINTYTGEPTYAADFKRRFTFSLDTSKSTAYLQMNSLRAEDTAVYYCAKYPHYYGSSHWYFDVWGQGTLVTVSSASVAAPSVFIFPPSDEQLKSGTASVVCLLNNFYPREAKVQWKVDNALQSGNSQESVTEQDSKDSTYSLSSTLTLSKADYEKHKVYACEVTHQGLSSPVTKSFNRGEC
notes: Bivalent CrossMab, non-crossed ANG2 arm and VH/VL-crossed VEGF arm; wild type CH1/CL interface (control)
B5: Ang2VEGF-0283 (bispecific antibody, human IgG1, lambda)
light 1: QPGLTQPPSVSVAPGQTARITCGGNNIGSKSVHWYQQKPGQAPVLVVYDDSDRPSGIPERFSGSNSGNTATLTISRVEAGDEADYYCQVWDSSSDHYVFGTGTKVTVLGQPKAAPSVTLFPPSSKKLQANKATLVCLISDFYPGAVTVAWKADSSPVKAGVETTTPSKQSNNKYAASSYLSLTPEQWKSHRSYSCQVTHEGSTVEKTVAPTECS
heavy 1: not shown
heavy 2: not shown
light 2: B4 light 2
notes: Bivalent CrossMab; knobs-into-holes
B6: Ang2VEGF-0284 (bispecific antibody, human IgG1, kappa)
light 1: B4 light 1 with E124K, Q125R
heavy 1: not shown
heavy 2: not shown
light 2: B4 light 2
notes: as for B5
B7: Ang2VEGF-0395 (bispecific antibody, human IgG1, kappa)
light 1: B4 light 1 with E124K
heavy 1: not shown
heavy 2: not shown
light 2: B4 light 2
notes: as for B5
B8: Ang2VEGF-0397 (bispecific antibody, human IgG1, kappa)
light 1: B4 light 1 with Q125K
heavy 1: not shown
heavy 2: not shown
light 2: B4 light 2
notes: as for B5
B9: Ang2VEGF-0282 (bispecific antibody, human IgG1, kappa)
light 1: B4 light 1 with E124K, Q125R
heavy 1: not shown
heavy 2: not shown
light 2: B4 light 2 with Q140E
notes: as for B5
B10: Ang2VEGF-0394 (bispecific antibody, human IgG1, kappa)
light 1: B4 light 1 with E124K
heavy 1: not shown
heavy 2: not shown
light 2: B4 light 2
notes: as for B5
B11: Ang2VEGF-0285 (bispecific antibody, human IgG1, kappa)
light 1: B4 light 1 with E124K, Q125R
heavy 1: not shown
heavy 2: not shown
light 2: B4 light 2 with Q140E
notes: as for B5
B12: Ang2VEGF-0396 (bispecific antibody, human IgG1, kappa)
light 1: B4 light 1 with Q125K
heavy 1: not shown
heavy 2: not shown
light 2: B4 light 2
notes: as for B5
B13: Ang2VEGF-0274 (bispecific antibody, human IgG1, kappa)
light 1: B4 light 1 with E124K, Q125K
heavy 1: not shown
heavy 2: not shown
light 2: B4 light 2
notes: as for B5
B14: Ang2VEGF-0286 (bispecific antibody, human IgG1, kappa)
light 1: B4 light 1 with E124K, Q125K
heavy 1: not shown
heavy 2: not shown
light 2: B4 light 2 with Q140E
notes: as for B5
B15: Chimeric TIM3-0018 (antibody, V domains shown)
VH: QVTLKESGPGILQPSQTLSLTCSFSGFSLSTSGMSVGWIRQPSGKGLEWLAHIWLNDDVFFNPALKRRLTISKDTSNNQVFLQIASVVTADTATYYCVRANGYLYALDYWGQGISVTVSS
VL: QIVLTQSPAIMSASPGQKVTITCSASSSVNYTQWYQQKLGSSPKLWIYDAFKLAPGVPARFSGSGTGTSYSLTISSMEAEDAASYFCHQWSSYPWTFGGGTKLEIK
notes: as for B3
B16: DR5TAA-0077 (bispecific antibody, human IgG1, kappa)
light 1: not shown
heavy: not shown
light 2: EIVLTQSPGTLSLSPGERATLSCRASQSVSRSYLAWYQQKPGQAPRLLIIGASTRATGIPDRFSGSGSGTDFTLTISRLEPEDFAVYYCQQGQVIPPTFGQGTKVEIKRTVAAPSVFIFPPSDEQLKSGTASVVCLLNNFYPREAKVQWKVDNALQSGNSQESVTEQDSKDSTYSLSSTLTLSKADYEKHKVYACEVTHQGLSSPVTKSFNRGEC
notes: Tetravalent 2+2: DR5 core antibody (VH/VL crossover on DR5) with two FAP Fabs fused to the HC C-termini; wild type CH1/CL interface; also called DR5TAA-0077 (control)
B17: DR5TAA-0081 (bispecific antibody, human IgG1, kappa, L234A L235A)
light 1: EVQLLESGGGLVQPGGSLRLSCAASGFTFSSHAMSWVRQAPGKGLEWVSAIWASGEQYYADSVKGRFTISRDNSKNTLYLQMNSLRAEDTAVYYCAKGWLGNFDYWGQGTLVTVSSASVAAPSVFIFPPSDEQLKSGTASVVCLLNNFYPREAKVQWKVDNALQSGNSQESVTEQDSKDSTYSLSSTLTLSKADYEKHKVYACEVTHQGLSSPVTKSFNRGEC
heavy: not shown
light 2: B16 light 2 with R31S, I50Y, T54S, Q93T, V94T, I95H, P97I
notes: Tetravalent 2+2: DR5 core antibody with two VH/VL-crossed FAP Fabs fused to the HC C-termini; wild type CH1/CL interface; the set of three chains is the same; also called DR5TAA-0081 (control)
B18: DR5TAA-0083 (bispecific antibody, human IgG1, kappa, L234A L235A)
light 1: not shown
heavy: not shown
light 2: B16 light 2 with E124R, Q125K
notes: Tetravalent 2+2, VH/VL crossover on DR5
B19: DR5TAA-0078 (bispecific antibody)
light 1: EIVLTQSPGTLSLSPGERATLSCRASQSVSSSYLAWYQQKPGQAPRLLIYGASSRATGIPDRFSGSGSGTDFTLTISRLEPEDFAVYYCQQGTTHPITFGQGTKVEIKSSASTKGPSVFPLAPSSKSTSGGTAALGCLVKDYFPEPVTVSWNSGALTSGVHTFPAVLQSSGLYSLSSVVTVPSSSLGTQTYICNVNHKPSNTKVDKKVEPKSCD
heavy: not shown
light 2: B16 light 2
notes: Tetravalent 2+2: DR5 core antibody with CH1-CL crossover on DR5 (instead of VH/VL), two FAP Fabs fused to the HC C-termini; wild type CH1/CL interface; also called DR5TAA-0078 (control)
B20: DR5TAA-0082 (bispecific antibody, human IgG1, kappa, L234A L235A)
light 1: B16 light 2 with R31S, I50Y, T54S, Q93T, V94T, I95H, P97I, E124R, Q125K
heavy: not shown
light 2: B17 light 1 with Q133E
notes: Tetravalent 2+2, VH/VL crossover on FAP

Tests used:
[1] = biological target: T1, biotinylated Tim3-ECD-AviHis (human, UniProt Q8TDQ0 22-202, biotinylated (Avi tag)); assay: ELISA, biotinylated Tim3-ECD-AviHis on streptavidin plates
T1 construct: extracellular domain; also called huTIM3; hu Tim3; not shown: Avi and His tags

[2] = biological target: T2, biotinylated PD1-ECD-AviHis (human, UniProt Q15116 25-170, biotinylated (Avi tag)); assay: ELISA, biotinylated PD1-ECD-AviHis on streptavidin plates
T2 construct: extracellular domain; also called huPD1; hu PD1; not shown: Avi and His tags

[3] = biological target: T3, human Tim3-ECD (human, UniProt Q8TDQ0 22-202); assay: SPR (Biacore T200), antibody captured via anti-human Fab IgG, human Tim3-ECD in solution, 1:1 Langmuir
T3 construct: extracellular domain; Analyte of the Biacore assay; also called hu Tim3-ECD
Procedure: (§1) The sample and running buffer was HBS-EP+ (0.01 M HEPES, 0.15 M NaCl, 3 mM EDTA, 0.05% v/v Surfactant P20, pH 7.4). Flow cell temperature was set to 25° C. and sample compartment temperature to 12° C. The system was primed with running buffer.
(§2) Different samples were injected for 30 seconds with a concentration of 10 nM and bound consecutively to the flow cells 2, 3 and 4. […] Finally the double referenced data was fitted to a 1:1 langmuir interaction model with the Biacore™ T200 Evaluation Software.

[4] = biological target: T4, human PD1-ECD (human, UniProt Q15116 25-170); assay: SPR (Biacore T200), antibody captured via anti-human Fc IgG, human PD1-ECD in solution, 1:1 Langmuir
T4 construct: extracellular domain; Analyte of the Biacore assay; also called hu PD1-ECD
Procedure: Different samples were injected for 15 seconds with a concentration of 10 nM and consecutively bound to the flow cells 2, 3 and 4. […] Finally the double referenced data was fitted to a 1:1 langmuir interaction model with the Biacore™ T200 Evaluation Software.

[5] = biological target: T3, human Tim3-ECD; assay: SPR (Biacore T200), antibody captured via anti-human Fab IgG, human Tim3-ECD in solution, 1:1 Langmuir; 2 + 2 bispecific format, Tim3-arm
Procedure: as §1, §2

[6] = biological target: T2, biotinylated PD1-ECD-AviHis; assay: ELISA on biotinylated PD1-ECD-AviHis
Procedure: After washing (3×90 μl/well with PBST-buffer) 25 μl anti PD1 antibody samples were added in increasing concentrations and incubated 1h at RT. After washing (3×90 μl/well with PBST-buffer) 25 μl/well goat-anti-human H+L-POD (JIR, JIR109-036-098) was added in 1:5000 dilution and incubated at RT for 1 h on a shaker.

[7] = biological target: T5, human Ang-2-RBD-Fc (human, UniProt O15123 275-496, limits assumed); assay: SPR (Biacore T200), antibody captured via anti-human F(ab')2, Ang2-RBD-Fc in solution, apparent KD, 1:1 Langmuir
T5 construct: domain: RBD; not shown: Fc part
T5 sequence (looked up): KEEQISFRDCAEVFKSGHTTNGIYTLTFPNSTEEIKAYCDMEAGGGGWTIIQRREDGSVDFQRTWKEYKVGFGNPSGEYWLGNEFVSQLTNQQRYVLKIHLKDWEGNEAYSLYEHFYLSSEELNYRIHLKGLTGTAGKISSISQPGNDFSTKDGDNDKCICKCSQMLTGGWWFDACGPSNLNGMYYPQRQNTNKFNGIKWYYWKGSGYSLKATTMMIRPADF

[8] = biological target: T6, human VEGF-A-121-His (human, UniProt P15692-9 27-147); assay: SPR (Biacore T200), VEGF-A-121-His captured via anti-His, antibody in solution, 1:1 Langmuir
T6 construct: also called VEFG-A-121-His; not shown: His tag
T6 sequence (looked up): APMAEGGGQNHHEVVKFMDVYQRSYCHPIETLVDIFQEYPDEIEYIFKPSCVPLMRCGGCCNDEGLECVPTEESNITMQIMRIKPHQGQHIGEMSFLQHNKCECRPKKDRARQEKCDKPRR

[9] = biological target: T7, human FAP (human, UniProt Q12884 26-760); assay: SPR (Biacore), antibody captured via anti-human IgG Fc, 5 ug/ml human FAP injected alone for 180 s
T7 construct: also called hFAP
T7 sequence (Q12884 26-760 limits assumed): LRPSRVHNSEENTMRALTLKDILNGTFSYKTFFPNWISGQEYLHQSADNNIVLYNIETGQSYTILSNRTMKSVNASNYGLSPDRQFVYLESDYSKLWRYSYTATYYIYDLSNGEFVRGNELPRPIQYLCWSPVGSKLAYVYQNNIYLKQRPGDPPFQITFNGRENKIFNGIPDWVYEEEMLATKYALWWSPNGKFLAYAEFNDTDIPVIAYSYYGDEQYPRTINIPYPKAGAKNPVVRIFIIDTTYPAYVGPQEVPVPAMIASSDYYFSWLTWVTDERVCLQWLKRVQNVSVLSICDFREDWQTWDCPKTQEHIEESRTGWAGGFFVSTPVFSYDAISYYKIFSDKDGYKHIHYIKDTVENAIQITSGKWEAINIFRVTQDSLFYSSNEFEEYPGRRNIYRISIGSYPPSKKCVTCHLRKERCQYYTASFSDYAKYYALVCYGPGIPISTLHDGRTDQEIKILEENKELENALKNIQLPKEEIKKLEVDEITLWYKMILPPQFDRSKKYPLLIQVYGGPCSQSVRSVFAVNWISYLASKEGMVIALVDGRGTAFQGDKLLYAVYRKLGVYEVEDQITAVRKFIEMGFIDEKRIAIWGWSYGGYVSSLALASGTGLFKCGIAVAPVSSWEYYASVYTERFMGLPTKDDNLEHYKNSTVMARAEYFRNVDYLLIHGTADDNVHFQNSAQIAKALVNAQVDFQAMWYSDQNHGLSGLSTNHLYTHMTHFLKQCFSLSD
Source text: Therefore a <Fc> capturing IgG is immobilized on the chip surface and the different DR5TAA CrossMAbs is captured. In the experiment the targets DR5 and FAP were either added individually or simultaneously to the captured CrossMAb.

Binder	Kd [7] [nM]	Kd [8] [nM]	further results
B1	–	–	EC50 [1]: 0.11 nM; EC50 [2]: 0.09 nM; Kd [3]: 0.3 nM; Kd [4]: 1.9 nM
B2	–	–	EC50 [1]: 0.19 nM; EC50 [2]: 0.08 nM; Kd [5]: 2.2 nM
B3	–	–	binding result [6]: no binding
B4	15	6	–
B5	15	4	–
B6	13	4	–
B7	15	4	–
B8	14	4	–
B9	14	4	–
B10	12	3	–
B11	14	4	–
B12	17	3	–
B13	17	3	–
B14	12	4	–
B15	–	–	EC50 [1]: 0.15 nM; binding result [6]: no binding
B16	–	–	FAP signal [RU max] [9]: 41.9 RU
B17	–	–	FAP signal [RU max] [9]: 7.2 RU
B18	–	–	FAP signal [RU max] [9]: 18.5 RU
B19	–	–	FAP signal [RU max] [9]: 38.4 RU
B20	–	–	FAP signal [RU max] [9]: 7.4 RU
